The series can be described thus: soluble on expression in E. coli; label from the status in PepcDB or PDB records.
“MKRLSFLTLRPRHLSFLTLQRRNALRDALRHRSAPRRAFRIGRRASRTACDAERRTIVRLSFRALQPRRLSLLTLQRRNALRDALRHRSAPRRVFRIGRRASRTACDAQRCTIVRLSFRALQPRRLSFLTLQRRSALRDALHHKSAPRCTFKIGRGASRTACDAERRTIVRLSFRALQPRRLSFLTLQRRNALGDALRHKSAPRCTFKIGREASRTACDAERRTIVRLSFRALQPRRLSFLTLQRRNALRDALRHKSAPRRAFRIGRRASRTACDAERRTIVSQISLNALEHHHHHH”: the “soluble on expression in E. coli” value is listed as “not soluble”. Next, “MADILLLDNIDSFTYNLVDQLRSSGHRVVIYRNHIAADNIIERLQQLEQPVLMLSPGPGTPAQAGCMPELLQRLQGQLPMIGICLGHQAIIEAYGGHVGQAGEILHGKASAIEHDGQGMFAGMPNPLPVARYHSLVGSNLPAELTVNARFGEMVMAVRHDAHRVCGYQFHPESILTTHGARLLEQTLAWALA”: “not soluble”; “MSLKIVRILEKDLPITSPGANAVVDFAGLTTSAVAIVTDAFRDGKPLVGYGFGSIGRWSVGGMLRERFIPRILAVEPASLQDETGNIDPFACWNAAMRNEKPGGHGDRATALGALDMALWDLRAKADGVPLYRLLADRYRDGQADEDVAVYAAGGYYQPGSNYRSLQDELKGYIDRGYNEVKIKIGGAPLAEDMRRIEAAIAVLGDGARLAVDANGRFDLETALAYGRAMSDYGLRWYEEPGDPLDFRLMAVLAEHYDGPLATGENLFSSQDARNLLRYGGMRAERDFVQFDCGLAYGLPDYLKVLDIMRRHGWSPRRLHPHGGHQMSLHLAAGLGLGGNESYPGVFQPLGGFADCSKVENGRVRLPDAPGVGLELKSELKTWLDEAFEEGHHHHHH”: “not soluble”; “MGSDKIHHHHHHMDAILECCAGLDVHQETVVACILFGSLESKPKKTIRTFSTTTSDLLALTDWLEEEKCSHVAMESTGVYWKPVWNILEAGSFQLSLANAQRIKNLPGRKTDVKDAEWIAQLLRSGLIQGSFVPPAEIRDLRDLTRYRKKLLQDATQEKNRIHKILQDANIKITTYISDIFGVSGRNIMESLMDGEVITVEKLNQMVKGKVKSKIPGLADALNHRLRSHHRDMIRYSWSHLKFLEQSLINVEQKISECMAPYQQEVELLTSIPGINQTSSAIMIAELGADMSVFPTDSQLSSWAGVSPGNNESAGKKKEGVFPQETKR”: “not soluble”. Next, “MFARDIGIDLGTANVLIHVKGKGIVLNEPSVVAIDRNTGKVLAVGEEARSMVGRTPGNIVAIRPLKDGVIADFEITEAMLKYFINKLDVKSFFSKPRILICCPTNITSVEQKAIREAAERSGGKTVFLEEEPKVAAVGAGMEIFQPSGNMVVDIGGGTTDIAVLSMGDIVTSSSIKMAGDKFDMEILNYIKRKYKLLIGERTSEDIKIKVGTVFPGARSEELEIRGRDMVTGLPRTITVCSEEITEALKENAAVIVQAAKGVLERTPPELSADIIDRGVILTGGGALLHGIDMLLAEELKVPVLIAENPMHCVAVGTGIMLENIDKLPRRALK”: “not soluble”; “GPGSMSSLQKINDIEAELARTQKNKATMAHICALKARLAQLKRELIASESKKGGGKGEGFDVQKTGDARIGFIGFPSVGKSTLLSKMTSTHSEVAAYEFTTLTCVPGVVNYRGAKLQMLDLPGIIEGAKDGKGRGRQVIAVARTCSLILIVLDIAKPLQHKLIIERELDGFGIRLNKSPPDIVIRKKDRGGISISSTCPLTHIDQETIKIILGEYRMANADVTFRGDYTADEFIDAIEGNRAYIPAIYVLNKIDQISIEELDIVARIPHNCPISAHHEWNLDGLLECIWDHLNFIRVYTKPKGQVPDYDAPVILKKSPQPSVESFCNRIHRQLIRNYKYAWVWGSSVKHQPQRVGKDHSLDDEDVVQVVKKV”: “not soluble”.

Regarding “SNAMSELSYRRILLKLSGEALMGDGDYGIDPKVINRLAHEVIEAQQAGAQVALVIGGGNIFRGAGLAASGMDRVTGDHMGMLATVINALAMQDALEKLGAKVRVMSAIKINDVCEDFIRRRAIRHLEKGRIAIFAAGTGNPFFTTDSGAALRAIEIGADLLLKATKVDGVYDKDPKKHSDAVRYDSLTYDEVIMQGLEVMDTAAFALARDSDLPLRIFGMSEPGVLLRILHGAQIGTLVQGRS”, the “soluble on expression in E. coli” value is reported as “soluble”.

“MGSDKIHHHHHHMKKKLALVVVHEIYGVNDHMHHVTDHFTSSHIDVFCPNLLQSQPAFHYSDEEKAYHFFMNHIGFEDGKKQIETFITHLSSRYTHIGLIGFSVGATISWLCSNNPKIDFIIGCYGSRIRDYIHMKPTCATLLIFPEKEASFSVPSFIQSLQQQKNPLLEIYQLHGEHGFLNPYTEKYNGHSTNQAYNLIDSFLVKNTLIKEM”: the “soluble on expression in E. coli” value is on record as “not soluble”. Next, “EHLPKLQPRPYSCASSSLFHPGKLHFVFNIVEFLSTATTEVLRKGVCTGWLALLVASVLQPNIHASHEDSGKALAPKISISPRTTNSFHLPDDPSIPIIMVGPGTGIAPFIGFLQHREKLQEQHPDGNFGAMWLFFGCRHKDRDYLFRKELRHFLKHGILTHLKVSFSRDAPVGEEEAPAKYVQDNIQLHGQQVARILLQENGHIYVCGDAKNMAKDVHDALVQIISKEVGVEKLEAMKTLATLKEEKRYLQDIWS”: “soluble”; “SEESRESPAEHGYYMPAEWDSHAQTWIGWPERQDNWRHNALPAQRVFAGVAKAISKFEPVTVCASPAQWENARKQLPEDIRVVEMSMNDSWFRDSGPTFIVRKRPVKLSSLNRNIAGIDWNFNAWGGANDGCYNDWSHDLLVSRKILALERIPRFQHSMILEGGSIHVDGEGTCLVTEECLLNKNRNPHMSKEQIEEELKKYLGVQSFIWLPRGLYGDEDTNGHIDNMCCFARPGVVLLSWTDDETDPQYERSVEALSVLSNSIDARGRKIQVIKLYIPEPLYMTEEESSGITQDGEAIPRLAGTRLAASYVNFYIANGGIIAPQFGDPIRDKEAIRVLSDTFPHHSVVGIENAREIVLAGGNIHCITQQQPAEPTSVAENGH”: “soluble”. As for “MSLPSAQAPSLLNPTDDFAALGNIAWLWMNSPMHRDWPVHLLARNTLAPIQLGQYILLRCNDVPVAYCSWALMDADTELSYVMAPSSLGGNAWNCGDRLWIIDWIAPFSRDDNRALRRALAERHPDSVGRSLRVRRGGDTARVKEYRGRALDAAAARAQLDRYHAELIAGLRASNGGYAPREGHHHHHH”, the “soluble on expression in E. coli” value is on record as “not soluble”. As to “MSLILVTGHRGFIGSHIYSYFNGNSEVYGFDIGDKLEDRRYDVIIHMAARGLIRKSIEFPYDYFQDDLSLVVRFLELARKNDSVFIFPSSGSTAEPTNPYSLAKKNAEEWIRLYGKLYGLKYYILRFFNIYGDGAKKGAVYLFTKAALSGEEAIVYGDGSHIRDFLYVGDVPITIERILNEKYRTGEYEVGSGKGTSVNDLISLIEKVTGKKIRTRHEDYIVPEASELVAKNTIVKNPTPLEVGVERVMEFILKDNEGHHHHHH”, the “soluble on expression in E. coli” value was “soluble”. Consider “MSLTRDGSPWIPIAGEMHYSRIAAERWDTELAKMAAAGIDVVSTYVFWNHHEEREGEWDFSGNRNVRRFVELCARHGLHVIVRLGPFCHGEVRNGGLPDWLYGKSYEVRSLDAGFLDAVRGLYAHIAQQLRGLYFKDGGPIIAAQVDNEYMASSAPWEMTTGISREWVPSGHDGAGYLERLRDIAIEEGIDPPMFTCTGWQSPVPDDMLPLWGGYAYRPWLFYDGVGAEGMTEHPATDEYRYRRLHGSSTSDGFDPPYDPDSRPYACCEMGGGMFNSYDYRFVLPKRSVDAMANIKLGSGCDFLGYYMFHGGTNPKGAAGFLNEGQTPKRSYDFQAPLGKFGQVRESYRRLRTLHEFVKAFGPELAGMPVSLQDGQDRIDPSDSETLRYAVRSDGERGFVSIDNFQDHARVPSRHGEQIDVTTGTGERIRFTGIGLAEGENCILPFNMDLDGVRLVRANLQPVTVLRVPGRPFRTFVFLKPDGMDELTFHFEGDIQDVTVGKADFERFMVRDAAEIVCVTRALAGRMTVLDGGLAFVDDDNALLYEDGDGWTLESPRAENGIAAYPEGLLGSPRPVEPVSVYARMRRLHADRYEIALPAGMGRLFRDQRQVADVMLNIAYQGDIGWLFCGDVLIADNFCNGETWQVGLRDYADAIDAAGGKLTLVVTPLRRGVRVKVTSSMAARLEQSDACVADVTDVYATPVYHMPVGEGHHHHHH”, for which the “soluble on expression in E. coli” value is recorded as “soluble”.
